Assay: label from the status in PepcDB records
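Note: failed if final PepcDB status was selected cloned or expressed and not failed if soluble or beyond.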

**Q.** For “MSYSVTLTGPGPWGFRLQGGKDFNMPLTISRITPGSKAAQSQLSQGDLVVAIDGVNTDTMTHLEAQNKIKSASYNLSLTLQKSKRPIPISTTAPPIQSPLPVIPHQKVVANSPANADYQERFNPSVLKDSALSTHKPIEVKGLGGKATIIHAQYNTPISMYSQDAIMDAIAGQAQAQGSDFSGASPLASLPVKDLAVDSASPVYQAVIKTQSKPEDEADEWARRSSNLQSRSFRILAQMTGTEYMQDPDEEALRRSSTPIEHAPVCTSQATSPLLPASAPSPAAASPIAASPTLATAAAAHAVAASAAGPASSPVENPRPQASAYSPAAATSPAPAAHTSYSEGPAAPAPKPRVVTTASIRPSVYQPVPASPYSPSPGANYSPTPYTPSPAPAYTPSPAPTYTPSPAPTYSPSPAPAYTPSPAPNYNPTPSAAYSGGPSESASRPPWVTDDSFSQKFAPGKSTTSVSKQTLPRGAPAYNPTGPQVTPLARGTFQRAERFPASSRTPLCGHCNNVIRGPFLVAMGRSWHPEEFNCAYCKTSLADVCFVEEQNNVYCERCYEQFFAPICAKCNTKIMGEVMHALRQTWHTTCFICAACKKPFGNSLFHMEDGEPYCEKDYINLFSTKCHGCDFPVEAGDKFIEALGHTWHDTCFICAVCHVNLEGQPFYSKKDKPLCKKHAHAINV”, which protein production is on record?
**A.** failed

**Q.** For “MESSEEDDEYPFIESITPQSKIDSVHQSLTEKGIRKLCCELMDLKDAVENMCGDMRTKYLAFLRISEEAVEMEHELVELRKHISSQGILVQDLMAGVCREMDDWNRLPGDVHDAEVEEDPLPNEVTDPKSEFLEKIDLLLAEHKVDEALEAMDAEERSSPDLKGSVEMSSYKSAFMERKAVLEDQLLRIAKQPSICVAELKHALIGLIRLGKGPSAHQLLLKFYATSLRRRIEAFLPSCLTCPNTFPATLSKLVFSNISVATKESAAMFGDDDNPAYSNKVVQWAEREVEYLVRLVKENASPSETASALRAASICLQDCLNYCKVLEPQGLFLSKLFLVLFRPYVEEVLELNFRRARRVIFDLNETDEGLESPSDFVTILSEFAIASDTMMTDCSIRFMQIVQDILEQLTHLVVLHFGESVLTRILQLYDKYIDFLIKALPGHSDEDGLPELQDNTVLARAETDSEQLALLGAAFTILDELLPRSLVKVWKLQIENGGGEGENSAALNSSAAPELKEWKRHMVQAFDKLRNYFCLQFVLSFIYSREGLTRLDALIYLTETPDDLHLPSLPFQALFSKLQQLAIIAGDVLLGKEKLQKILLARLTETVIIWLSNEQEFWSAFEDESNPLQPSGLQQLILDMNFTVEIARFAGYPFKVVQNHASVVINRAINIFSERGINPQSSLPKTEWFTEAAKSAINRLLMGSEDASEPEEYECEEEEEDDHHIVLPEMDDDSDSEDTSSLSTVDSFESFASASMADLESPSFTDSES”, which protein production is on record?
**A.** failed

**Q.** For “MSNDLINGSILHCLETASLGMPLEVWKTRMCVYRNENTIKSFKNIYNKGLGQFYAGFYAKLIESGSKGAVLLLSKEQIIKVCNDMNINKTTSGFIGGACGGICQSLVMTPCTFFITASIDKKINYKEKLIHIFKNTGITTLYKGNTAMCLRQGTNWASRQGITEWIRNIVMERKKNRKNKNDDINNVKGMIFSGNDITTDKIKHNNNNNNNNNTSQSKSLELTTSEELFCGIVGGALSVWNNPFDVVRVYMQNNANKNIKLTFFQSFIHLYKEGGILYLYKGVIPRCFLCIWQTLFMVTGIKILNKYF”, which protein production is on record?
**A.** failed

**Q.** With “MDSGFTLRAPRNDKRRNPMPAILGTGEHRYRVVENFAKLPDGWQLTDVAAVAVDSLDRVYVFNRGAHPMVVLDREGNFLRSWGEGLFSRAHGLHIDADDNLYCTDDGDHTVRKCTSDGKVLLTIGIPAKPAPFMSGEPFHRCTHTALSPKGEIYVSDGYGNARVHKFTPDGKLIKSWGEPGTDPGQFNIVHNIATDSDGWVYVADRENHRVQVFNGEGKYETQWNNLHRPCALCCCGGRSPTFVIGELGPGLDINRNVPNLGPRLSIVDAKGNRIARLGGEEGPGVASGKFLAPHGIALDSKGDIYVGEVGVTNWATSFPDQEMPAVVRATRCLQKLERVRE” as the sequence, how does the protein production read?
**A.** failed

**Q.** For “MDILDLNKAQAVQQNEQEVEDKERESKEPVVLEDLSALAWLELEEFSRLSGLPKERILELVNLGKIKSKISSNKLLIDASSGTNALIKKVENSLISMDMNGRSLEPVFVEKTINTILNLHDKVIGAKDETISAFKNENMFLKDALISMQEVYEEDKKTIDLLRDELNQAREEIEFMKRKYRLMWGKVADMSSVNKK”, which protein production is on record?
**A.** failed

**Q.** Which protein production does the source give for “MSDIIHLLPDSVANQIAAGEVIQRPASVIKELVENAIDADAQNIHVLVTDAGKTCIQIIDDGKGMSETDARLSFERHATSKIREAADLFALRTMGFRGEALASIAAVAQVELKTRLESEELGTKLVIAGSKVESQEAVSCSKGSNFSVKNLFFNVPARRKFLKANSTELSNILAEFERIALVHPEVAFSLYSNDSELFNLPVSPLRQRILAIFGKKLNQQLLNIEVNTTMVKISGYIAKPETARKKGAHQYFFVNGRYMRHPYFHKAVMEAYEQLIPVGEQVSYFIYFEVDPANIDVNIHPTKTEIKFENEQAIWQILSASVKESLGKFSAIPSIDFDTEDMPDIPAFEQNLPPAPPKIHYNSDFNPFKVSSGGSGGGSYSRPKVEWEGLYGGLTKASKMNEPQQEPEMDWENSPFEEEPMVAEEKTISAVSAASSTFSSASSTLYANESVIEKGNLHLQFKGRFILTSVKSGLMLIDQHRAHIRVLFDRYMVQIKQKQGVSQGVLFPEILQLPASEAAVLQGIMDDLSAVGFDLSDLGGGSYAINGIPSGIEGLNPVELVRNMLHTAMEKGNDVKEEIQNILALTLARAAAIVYGQVLSNEEMVSLVDSLFACPSPNYTPDGKTVLTTIKEEDIEKLFK” here?
**A.** failed

**Q.** Which protein production does the source give for “MNALAVRWNDWPITRKSLAVVTLPLLLLAVALMAIYSVERQNIAAENDVRQTLEVLSDLYEAHALLAETAAGVRGYRLVRRDEFLTPYRDAEPRLQRVADRLSQRITDPSQAQRFARIKPLFAEKMQGWRRLLAPDLSREEEIRQLWDGKYKLDILRAELRELRNYETAQLQVRTAKAQGLRQRNLIITLSAAMLGGLGAVFAVAWFASALSGRLRTLAANADRLGEGLPLAPQPRAGDELGQVGQRLAQASELLAARAAEAQLARREAETANRAKTEFLSRSSHELRTPLNAILGYAQVLEMDLPEPGHRRHLRHILGAGRHLLGLITELLDIARIEADQLDLSPEPISVRAAVHEALGLIAPDADKHGIALQPASIDGPWTVRADAQRLRQVLLNLLSNAVKFNRTGGQVQVSAQADGEQVRITVADQGAGLTPAQIERLFTPFERLGAERSAVEGTGLGLALSKRLIEAMGGQIGVDSSSDGARFWISLPQGEHQHSEPTRPLVPPSNAGSGVCRLLSIEDNPSNQALIRTLTERRPQWQLLEAASLAQARELLQHGAPDLILLDLHLSDGNGEELLRELQAQPAMAAIPVVVISADATSATLARVGNQGVRAYLTKPLDVAEFFTVIDGLLA” here?
**A.** not failed

**Q.** With “MVRRLACKRAYRFRFYPTPEQEQLLRRTVGCCRKVYNLALEARSTAWTAERRSITYVQTSAMLTQWKQTAEYSYMNEVSCVPLQQALRHLQTAFSNFFKQTGDYPRFKAKSHGGSAEYTRSAFTWDAKRNELTLAKMRGPLPIRWSRTLPRKTEPSTVTVSLDAAGRWHVSILVEEAIRPLPARGDAVGIDLGVDSYAVTSDGETIANPRHYRKLAERLEREQRALSRKTKGGNNRRKAALKVARTYARITDMRRDFLHKLSTRIIRENQTVVLEDLNVRNMARRCAPKPDPDNPNHWLPNGQSAKNGLNGSIMDAGWSEFRRMLEYKAEWYGRKLITIDRYYPSTQICSHCGAKTGPKGMPGLTVRAWTCPDCGTTHDRDLNAAENILAAGLAVSVCKDGRTGTKVSH” as the sequence, how does the protein production read?
**A.** failed

**Q.** With “AHHHHHHGSKMIKVKVIGRNIEKEIEWREGMKVRDILRAVGFNTESAIAKVNGKVVLEDDEVKDGDFVEVIPVVSGG” as the sequence, how does the protein production read?
**A.** not failed

**Q.** For “MELNAVKSSYARWAPIYDKTFGAITNVGRHAAVDYINAHDATELLEVGVGTGLSLPNYRPGLKVTGIDFSEEMLAKARAKVESLGLGHVQSLRQMDARDLDFADASFDVVAAMHIISVVPEPERVMAEMARVCKPGGLIVITNHFARDSGMLARVERFAAPFANLLGWHPDFEISSVLKQPDLTVIERKSLPPMGMMTFLVLQKCELEHHHHHH”, which protein production is on record?
**A.** not failed

**Q.** With “MAKKAMENGYKLILGSQSMARKQILAEMGYDFTIVTADIDEKAIRKEKPEDLVVTIAEAKANEIILKLGGENQFTQDSQPTLLITADTVVVYKGWDKAEVYFHEIPEHVIDDLIDDAITFKVAGGLMLEHPLISPFIDSVVGGVDTVMGLSKELTEKFINDVL” as the sequence, how does the protein production read?
**A.** failed

**Q.** Which protein production does the source give for “MKTRLLPVAPSAGTLPGLPDAAELAVLRAWHAGLSAREAVERYLGERRAPGQSSRGILGRIRRQLAAFARRRQREDLALLFEIAATERARQGRVADQAVELLRTLPLPEPAISDDVALWLDARAVTVLRAAGIDTLADLTVRVPRRRRWWAAIPGLGQAGARRIEAFFAEHPRLTERAKALIAEQPRGVVVPWEQLRLPHEVDGSEGQFRAPRETSVLTADNDYEAVQAWLSLHESPATQRAYRKEAERLILWAIIERGRPLSSLTTEDAIAYRGFLRRPSPHERWVGPARPRASADWRPFTDGLSARSIAYSLSVLGAMFRWLIQQRYVLANPFAGIKVRGGGRTAALDASHAFSEGEWALVRTLADGLEWSYGWEAAAAQRLRFVLDFAYATGLRASELITARLGGIETDRQSDHWLSLIGKGGRAGKVALPPLARTALDRYLVERGLPVTQARWNPQTPLIGALGLDPGGGITGSRLWSVMRRFFRVAADLIERDHTALAEKLRKASPHWMRHTHASHALARGAELTTVRDNLRHASISTTSIYLHGDDVKRARQIEAAFAAK” here?
**A.** failed

**Q.** For “AERTIQLPKPDMNRAGLLMKALSERHSTREYASKALSNTDLSDLLWAANGINRSSEGKRTAPSAMNRQDIDIYVVLPQGTYLYDAKGHKLNLISEGDHRSAVAGGQAFVNNAPVSLVLVSDLSKLGDAKSNHVQLMGAMDAGIVSQNISLFCSAARLATVPRASMDLVRLKAALKLKDTQMPMMNHPVGYFK”, which protein production is on record?
**A.** not failed

**Q.** For “MEEFQFTKRVHNILKIAAEEGESNIIQPVHLFIGMCKEGTGVCSELYMYLFRNVGTDFLEKLSLRKQDDLTDQEYEKIGQYKVSYKVLEILQIAKKRMERFQQVLMNEGHVIYALFRADTFIENPQIQKEILRIVEEPRDLAVDLKCFVPAYTHLTCHVRKANSSDFGKLVSFVSEEFGERWLHSIEYGFRTYKENVPIYIAEQKEVIVGFACYDVVRGKKGLFGPMGTAKQNRVKSVGKQLLHCSLHSMKQDGYEYAIIGQAGPVEFYERCCNARLIPIMDY”, which protein production is on record?
**A.** failed

**Q.** With “MGEAATKSDRQQNQTRLWLNILRLHGLVFGDLNRQLLDETGLSLAKFDAMAQLARNPDGLSMGKLSGALKVTNGNVSGLVNRLIKDGMVVKAMSADDRRSFSAKLTDAGLTTFKQASEAHNRILAELLRAVSDQDMVEASAALRGILESMQTGASLD” as the sequence, how does the protein production read?
**A.** not failed

**Q.** For “MEFNQFGQPIGHAIQQPIPGKFKAQSLIGNDVNLVLIEQDRVALKNVEQLWDCIKTEPDERCWTYLPYEAPETFRQLEYNLKRNFGFEPSFHYWIMVEGQAVGWIALMNLREQHAAVEIGNVYFSHRLKQTAAATEVIYLLLNHCFEQGLRRIEWKCDDLNGPSKRAALRFGFVYEGLFRQDRVSKGRNRDTTWFSIIDSEWASLKTAYLQWLNPDNFNHAGKQKKRLEDFIVT”, which protein production is on record?
**A.** failed

**Q.** For “MAITVSIELNRDLEIPASYDEVFDLLADVPKSASHFPKVDKLVDLGNNAYRWEMEKVGVDKHAIQSVYACTYHADKEAGKITWSPIKGEGNGVVSGSWTLSAKGDNATAVKFQTSAELTVPLPSLLKLAISPVIKHEFNSLVDTYMANLKKAFLEHHHHHH”, which protein production is on record?
**A.** not failed

**Q.** For “MKTFIWNSNYETGVAKVDDQHQCLVEIINEYSHLLANNTTTETDIELTLNKLIDYTKFHFKDEEQLMYSVGLDTRHITHHEKLHRDILDEISTLLSDQVTDKLSIARYILDLIIHWLVYHILGTDMNMAKQMKAIQGGLSARDAYDFEEKIKDKSTEPLLEALNALFIQISERNKDLMELNKTLEAKVISRTQQLSERNKELAILSLTDPLTNMANRRHAMQQLTLLWEESVNNNLPLSCLMIDVDYFKQINDTHGHDIGDVVLIELARVFQHAIRTDDIACRLGGDEFFIICPATELEGGLLIAELINEQVESLSIDISDSQLSLSTSIGVATKTAQMTSIEDLMKAADDGVYSAKSNGRGCTKSIQ”, which protein production is on record?
**A.** failed
